The supplement of paper PMC7877785
± gives the uncertainty stated by the source.

Experiment: self-splicing fitness, log relative to wild type (ln ratio); higher = more splicing; Tetrahymena group I intron in knt gene, E. coli kanamycin selection, DiMSum; sequences stand for … in CUCUCU…GGAGGGAAAAGUUAUCAGGCAUGCACCUGGUAGCUAGUCUUUAAACCAAUAGAUUGCAUCGGUUUAAAAGGCAAGACCGUCAAAUUGCGGGAAAGGGGUCAACAGCCGUUCAGUACCAAGUCUCAGGGGAAACUUUGAGAUGGCCUUGCAAAGGGUAUGGUAAUAAGCUGACGGACAUGGUCCUAACCACGCAGCCAAGUCCUAAGUCAACAGAUCUUCUGUUGAUAUGGAUGCAGUUCACAGACUAAAUGUCGGUCGGGGAAGAUGUAUUCUUCUCAUAAGAUAUAGUCGGACCUCUCCUUAAUGGGAGCUAGCGGAUGAAGUGAUGCAACACUGGAGCCGCUGGGAACUAAUUUGUAUGCGAAAGUAUAUUGAUUAGUUUUGGAGUACUCGUGGUCG
In short: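 Pooled colonies went to amplicon sequencing on an Illumina HiSeq 2500 after six replicate transformations. The plates were LB agar with 100 μg/mL carbenicillin, 50 μM IPTG and 0.2% rhamnose, with or without 25 μg/mL kanamycin, incubated overnight at 37°C or 30°C. The E. coli BL21(DE3) library had all eight P1ex-region intron nucleotides randomised, the intron placed in the knt kanamycin-resistance gene on pET-22b(+). DiMSum fitness is the error-weighted combination of replicate fold changes, kanamycin against none, normalised to wild type.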

ACCCAGCAAUAUUACGUUAC
self-splicing fitness (ln) (30 °C): -3.24 ± 0.14
self-splicing fitness (ln) (37 °C): -1.13 ± 0.14

ACCCAGCAAUAUUACGUUCG
self-splicing fitness (ln) (30 °C): -3.74 ± 0.14
self-splicing fitness (ln) (37 °C): -1.26 ± 0.088

ACCGAGCAAUAUUACGAGUA
self-splicing fitness (ln) (30 °C): -3.23 ± 0.27
self-splicing fitness (ln) (37 °C): -3.5 ± 0.35

ACCGAGCAAUAUUACGCAUC
self-splicing fitness (ln) (30 °C): -1.14 ± 0.17

ACCGAGCAAUAUUACGCCAA
self-splicing fitness (ln) (37 °C): -2.01 ± 0.3

ACCGAGCAAUAUUACGCUCG
self-splicing fitness (ln) (30 °C): -3.22 ± 0.32
self-splicing fitness (ln) (37 °C): -1.61 ± 0.2

ACCGAGCAAUAUUACGCUGA
self-splicing fitness (ln) (30 °C): -3.32 ± 0.24
self-splicing fitness (ln) (37 °C): -1.24 ± 0.16

ACCGAGCAAUAUUACGCUGC
self-splicing fitness (ln) (30 °C): -2.73 ± 0.16
self-splicing fitness (ln) (37 °C): -2.5 ± 0.23

ACCGAGCAAUAUUACGGCCU
self-splicing fitness (ln) (30 °C): -0.622 ± 0.086
self-splicing fitness (ln) (37 °C): 0.418 ± 0.11

ACCGAGCAAUAUUACGGCGG
self-splicing fitness (ln) (30 °C): -3.59 ± 0.3
self-splicing fitness (ln) (37 °C): -2.58 ± 0.39

ACCGAGCAAUAUUACGGGAU
self-splicing fitness (ln) (30 °C): -3.29 ± 0.13
self-splicing fitness (ln) (37 °C): -2.5 ± 0.15

ACCGAGCAAUAUUACGGGCA
self-splicing fitness (ln) (30 °C): -0.957 ± 0.1
self-splicing fitness (ln) (37 °C): -0.109 ± 0.11

ACCGAGCAAUAUUACGGGUG
self-splicing fitness (ln) (30 °C): -1.43 ± 0.061
self-splicing fitness (ln) (37 °C): -1.08 ± 0.068

ACCGAGCAAUAUUACGUACA
self-splicing fitness (ln) (30 °C): -2.64 ± 0.27
self-splicing fitness (ln) (37 °C): -2.04 ± 0.27

ACCGAGCAAUAUUACGUAGU
self-splicing fitness (ln) (30 °C): -3.62 ± 0.18
self-splicing fitness (ln) (37 °C): -2.26 ± 0.15

ACCGAGCAAUAUUACGUAUC
self-splicing fitness (ln) (37 °C): -2.59 ± 0.25

ACCGAGCAAUAUUACGUCAA
self-splicing fitness (ln) (30 °C): -3.16 ± 0.19
self-splicing fitness (ln) (37 °C): -2.36 ± 0.3

ACCGAGCAAUAUUACGUCGC
self-splicing fitness (ln) (30 °C): -3.69 ± 0.28

ACCGAGCAAUAUUACGUGGC
self-splicing fitness (ln) (30 °C): -4.18 ± 0.2
self-splicing fitness (ln) (37 °C): -2.21 ± 0.18

ACCGAGCAAUAUUACGUGUU
self-splicing fitness (ln) (30 °C): -3.76 ± 0.19
self-splicing fitness (ln) (37 °C): -2.65 ± 0.24

ACCGAGCAAUAUUACGUUGA
self-splicing fitness (ln) (30 °C): -2.98 ± 0.17
self-splicing fitness (ln) (37 °C): -2.59 ± 0.21

ACCGAGCAAUAUUACGUUGG
self-splicing fitness (ln) (30 °C): -4.16 ± 0.27
self-splicing fitness (ln) (37 °C): -2.41 ± 0.22

ACCUAGCAAUAUUACGAAAA
self-splicing fitness (ln) (30 °C): -2.66 ± 0.18
self-splicing fitness (ln) (37 °C): -1.7 ± 0.13

ACCUAGCAAUAUUACGAACU
self-splicing fitness (ln) (30 °C): -0.308 ± 0.084
self-splicing fitness (ln) (37 °C): 0.0875 ± 0.11

ACCUAGCAAUAUUACGACGU
self-splicing fitness (ln) (30 °C): -0.142 ± 0.071
self-splicing fitness (ln) (37 °C): 0.371 ± 0.084

ACCUAGCAAUAUUACGAGGU
self-splicing fitness (ln) (30 °C): -3.09 ± 0.17
self-splicing fitness (ln) (37 °C): -2.43 ± 0.17

ACCUAGCAAUAUUACGCAAC
self-splicing fitness (ln) (30 °C): -1.98 ± 0.16
self-splicing fitness (ln) (37 °C): -0.895 ± 0.094

ACCUAGCAAUAUUACGCCAA
self-splicing fitness (ln) (30 °C): -3.4 ± 0.27
self-splicing fitness (ln) (37 °C): -2.09 ± 0.23

ACCUAGCAAUAUUACGCCCU
self-splicing fitness (ln) (30 °C): -0.142 ± 0.12
self-splicing fitness (ln) (37 °C): -0.462 ± 0.14

ACCUAGCAAUAUUACGCCUG
self-splicing fitness (ln) (30 °C): -2.69 ± 0.19
self-splicing fitness (ln) (37 °C): -1.66 ± 0.22

ACCUAGCAAUAUUACGCGAA
self-splicing fitness (ln) (30 °C): -3.01 ± 0.19
self-splicing fitness (ln) (37 °C): -1.99 ± 0.12

ACCUAGCAAUAUUACGCGUA
self-splicing fitness (ln) (30 °C): -2.46 ± 0.17
self-splicing fitness (ln) (37 °C): -1.22 ± 0.11

ACCUAGCAAUAUUACGGCUA
self-splicing fitness (ln) (30 °C): -2.93 ± 0.13
self-splicing fitness (ln) (37 °C): -2.65 ± 0.17

ACCUAGCAAUAUUACGGUAU
self-splicing fitness (ln) (30 °C): -3.08 ± 0.14
self-splicing fitness (ln) (37 °C): -1.44 ± 0.11

ACCUAGCAAUAUUACGGUUC
self-splicing fitness (ln) (30 °C): -4.77 ± 0.34
self-splicing fitness (ln) (37 °C): -2.62 ± 0.24

ACCUAGCAAUAUUACGGUUU
self-splicing fitness (ln) (30 °C): -1.85 ± 0.065
self-splicing fitness (ln) (37 °C): -0.482 ± 0.087

ACCUAGCAAUAUUACGUAGU
self-splicing fitness (ln) (30 °C): -2.07 ± 0.09
self-splicing fitness (ln) (37 °C): -0.568 ± 0.081

ACCUAGCAAUAUUACGUCCU
self-splicing fitness (ln) (30 °C): -0.685 ± 0.067
self-splicing fitness (ln) (37 °C): -0.579 ± 0.075

ACCUAGCAAUAUUACGUCUC
self-splicing fitness (ln) (30 °C): -1.59 ± 0.096
self-splicing fitness (ln) (37 °C): -0.658 ± 0.14

ACCUAGCAAUAUUACGUUGU
self-splicing fitness (ln) (30 °C): -1.79 ± 0.066
self-splicing fitness (ln) (37 °C): -1.12 ± 0.082

ACCUAGCAAUAUUACGUUUC
self-splicing fitness (ln) (30 °C): -3.55 ± 0.13
self-splicing fitness (ln) (37 °C): -1.94 ± 0.13

ACGAAGCAAUAUUACGAAGC
self-splicing fitness (ln) (30 °C): -3.6 ± 0.27
self-splicing fitness (ln) (37 °C): -2.61 ± 0.3

ACGAAGCAAUAUUACGAAGU
self-splicing fitness (ln) (30 °C): -3.44 ± 0.16
self-splicing fitness (ln) (37 °C): -2.86 ± 0.2

ACGAAGCAAUAUUACGACGG
self-splicing fitness (ln) (30 °C): -1.2 ± 0.12
self-splicing fitness (ln) (37 °C): -0.994 ± 0.094

ACGAAGCAAUAUUACGAGAU
self-splicing fitness (ln) (30 °C): -4.36 ± 0.17
self-splicing fitness (ln) (37 °C): -1.79 ± 0.16

ACGAAGCAAUAUUACGAUGA
self-splicing fitness (ln) (30 °C): -1.88 ± 0.18
self-splicing fitness (ln) (37 °C): -1.29 ± 0.17

ACGAAGCAAUAUUACGCAGC
self-splicing fitness (ln) (30 °C): -2.47 ± 0.21
self-splicing fitness (ln) (37 °C): -0.916 ± 0.18

ACGAAGCAAUAUUACGCCCC
self-splicing fitness (ln) (30 °C): -0.521 ± 0.21
self-splicing fitness (ln) (37 °C): -2.24 ± 0.39

ACGAAGCAAUAUUACGCGCG
self-splicing fitness (ln) (30 °C): -0.867 ± 0.12
self-splicing fitness (ln) (37 °C): -0.486 ± 0.18

ACGAAGCAAUAUUACGCUUU
self-splicing fitness (ln) (30 °C): -3.88 ± 0.22
self-splicing fitness (ln) (37 °C): -2.63 ± 0.22

ACGAAGCAAUAUUACGGCUC
self-splicing fitness (ln) (30 °C): -3.05 ± 0.22
self-splicing fitness (ln) (37 °C): -1.62 ± 0.23

ACGAAGCAAUAUUACGGCUU
self-splicing fitness (ln) (30 °C): -3.97 ± 0.24
self-splicing fitness (ln) (37 °C): -2.76 ± 0.22

ACGAAGCAAUAUUACGGGCC
self-splicing fitness (ln) (30 °C): -2.74 ± 0.15
self-splicing fitness (ln) (37 °C): -1.7 ± 0.14

ACGAAGCAAUAUUACGGUGA
self-splicing fitness (ln) (30 °C): -2.33 ± 0.088
self-splicing fitness (ln) (37 °C): -1.48 ± 0.085

ACGAAGCAAUAUUACGUACC
self-splicing fitness (ln) (30 °C): -1.3 ± 0.14
self-splicing fitness (ln) (37 °C): -1.17 ± 0.19

ACGAAGCAAUAUUACGUAUU
self-splicing fitness (ln) (30 °C): -3.11 ± 0.087
self-splicing fitness (ln) (37 °C): -2.18 ± 0.093

ACGAAGCAAUAUUACGUCCU
self-splicing fitness (ln) (30 °C): -0.493 ± 0.083
self-splicing fitness (ln) (37 °C): -0.288 ± 0.11

ACGAAGCAAUAUUACGUCUG
self-splicing fitness (ln) (30 °C): -0.601 ± 0.069
self-splicing fitness (ln) (37 °C): -0.997 ± 0.092

ACGAAGCAAUAUUACGUGAA
self-splicing fitness (ln) (30 °C): -2.43 ± 0.089
self-splicing fitness (ln) (37 °C): -1.64 ± 0.13

ACGAAGCAAUAUUACGUGAU
self-splicing fitness (ln) (30 °C): -2.04 ± 0.054
self-splicing fitness (ln) (37 °C): -0.989 ± 0.072

ACGAAGCAAUAUUACGUGGA
self-splicing fitness (ln) (30 °C): -2.7 ± 0.13
self-splicing fitness (ln) (37 °C): -2.69 ± 0.18

ACGAAGCAAUAUUACGUGUG
self-splicing fitness (ln) (30 °C): -2.16 ± 0.054
self-splicing fitness (ln) (37 °C): -0.817 ± 0.063

ACGAAGCAAUAUUACGUUCC
self-splicing fitness (ln) (30 °C): -2.97 ± 0.2
self-splicing fitness (ln) (37 °C): -1.29 ± 0.16

ACGCAGCAAUAUUACGACCC
self-splicing fitness (ln) (30 °C): -1.66 ± 0.18
self-splicing fitness (ln) (37 °C): -0.0893 ± 0.28

ACGCAGCAAUAUUACGACUG
self-splicing fitness (ln) (30 °C): -2.72 ± 0.14
self-splicing fitness (ln) (37 °C): -2.02 ± 0.2

ACGCAGCAAUAUUACGAUUC
self-splicing fitness (ln) (30 °C): -2.28 ± 0.085
self-splicing fitness (ln) (37 °C): -1.43 ± 0.096

ACGCAGCAAUAUUACGCACA
self-splicing fitness (ln) (30 °C): -0.862 ± 0.11
self-splicing fitness (ln) (37 °C): -0.0125 ± 0.12

ACGCAGCAAUAUUACGCCGG
self-splicing fitness (ln) (30 °C): -2 ± 0.11
self-splicing fitness (ln) (37 °C): -0.692 ± 0.15

ACGCAGCAAUAUUACGCGCG
self-splicing fitness (ln) (30 °C): -2.59 ± 0.18
self-splicing fitness (ln) (37 °C): -2.07 ± 0.2

ACGCAGCAAUAUUACGCGGA
self-splicing fitness (ln) (30 °C): -2.95 ± 0.22
self-splicing fitness (ln) (37 °C): -1.87 ± 0.17

ACGCAGCAAUAUUACGCGGU
self-splicing fitness (ln) (30 °C): -4.57 ± 0.19
self-splicing fitness (ln) (37 °C): -2.37 ± 0.12

ACGCAGCAAUAUUACGCGUA
self-splicing fitness (ln) (30 °C): -3.63 ± 0.23
self-splicing fitness (ln) (37 °C): -2.1 ± 0.15

ACGCAGCAAUAUUACGGACG
self-splicing fitness (ln) (30 °C): -1.31 ± 0.05
self-splicing fitness (ln) (37 °C): -0.318 ± 0.07

ACGCAGCAAUAUUACGGAUG
self-splicing fitness (ln) (30 °C): -3.06 ± 0.15
self-splicing fitness (ln) (37 °C): -1.67 ± 0.14

ACGCAGCAAUAUUACGGAUU
self-splicing fitness (ln) (30 °C): -2.19 ± 0.08
self-splicing fitness (ln) (37 °C): -0.83 ± 0.085

ACGCAGCAAUAUUACGGCCC
self-splicing fitness (ln) (30 °C): -0.00164 ± 0.16
self-splicing fitness (ln) (37 °C): 0.0347 ± 0.18
